T1: G9a and GLP (Homo sapiens, UniProt Q96KQ7+Q9H9B1)
T1 sequence (Q96KQ7 2-1210 limits assumed): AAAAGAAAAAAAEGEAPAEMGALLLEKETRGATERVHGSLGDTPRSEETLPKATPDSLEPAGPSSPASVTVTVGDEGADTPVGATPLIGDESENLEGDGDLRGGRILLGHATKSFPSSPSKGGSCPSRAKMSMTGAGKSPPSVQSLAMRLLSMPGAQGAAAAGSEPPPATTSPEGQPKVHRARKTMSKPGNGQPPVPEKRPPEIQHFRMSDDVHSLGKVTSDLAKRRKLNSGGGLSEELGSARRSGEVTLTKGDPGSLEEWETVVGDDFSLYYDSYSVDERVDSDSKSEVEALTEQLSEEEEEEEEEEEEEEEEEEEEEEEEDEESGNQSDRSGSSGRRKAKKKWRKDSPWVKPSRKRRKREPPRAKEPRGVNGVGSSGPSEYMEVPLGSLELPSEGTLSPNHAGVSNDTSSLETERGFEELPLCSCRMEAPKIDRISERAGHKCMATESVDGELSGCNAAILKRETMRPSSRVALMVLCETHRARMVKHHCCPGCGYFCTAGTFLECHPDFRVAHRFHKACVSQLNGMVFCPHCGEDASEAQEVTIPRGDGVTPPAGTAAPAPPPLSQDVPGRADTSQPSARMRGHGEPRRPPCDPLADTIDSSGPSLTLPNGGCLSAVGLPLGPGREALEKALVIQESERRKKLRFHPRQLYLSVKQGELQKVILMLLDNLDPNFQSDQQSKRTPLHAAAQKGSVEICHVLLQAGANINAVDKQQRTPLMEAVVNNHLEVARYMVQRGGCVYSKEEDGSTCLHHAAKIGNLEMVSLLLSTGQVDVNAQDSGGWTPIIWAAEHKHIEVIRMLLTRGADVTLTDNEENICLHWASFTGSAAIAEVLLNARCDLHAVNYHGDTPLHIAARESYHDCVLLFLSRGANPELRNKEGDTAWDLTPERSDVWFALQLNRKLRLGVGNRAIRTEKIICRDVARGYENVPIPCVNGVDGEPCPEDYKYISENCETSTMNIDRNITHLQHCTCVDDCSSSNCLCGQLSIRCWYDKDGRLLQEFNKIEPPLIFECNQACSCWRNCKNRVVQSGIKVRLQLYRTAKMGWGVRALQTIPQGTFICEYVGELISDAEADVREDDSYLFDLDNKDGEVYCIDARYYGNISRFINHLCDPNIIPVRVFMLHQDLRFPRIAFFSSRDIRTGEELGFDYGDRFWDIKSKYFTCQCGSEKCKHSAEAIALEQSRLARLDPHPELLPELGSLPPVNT
T1 sequence (Q9H9B1 2-1298 limits assumed): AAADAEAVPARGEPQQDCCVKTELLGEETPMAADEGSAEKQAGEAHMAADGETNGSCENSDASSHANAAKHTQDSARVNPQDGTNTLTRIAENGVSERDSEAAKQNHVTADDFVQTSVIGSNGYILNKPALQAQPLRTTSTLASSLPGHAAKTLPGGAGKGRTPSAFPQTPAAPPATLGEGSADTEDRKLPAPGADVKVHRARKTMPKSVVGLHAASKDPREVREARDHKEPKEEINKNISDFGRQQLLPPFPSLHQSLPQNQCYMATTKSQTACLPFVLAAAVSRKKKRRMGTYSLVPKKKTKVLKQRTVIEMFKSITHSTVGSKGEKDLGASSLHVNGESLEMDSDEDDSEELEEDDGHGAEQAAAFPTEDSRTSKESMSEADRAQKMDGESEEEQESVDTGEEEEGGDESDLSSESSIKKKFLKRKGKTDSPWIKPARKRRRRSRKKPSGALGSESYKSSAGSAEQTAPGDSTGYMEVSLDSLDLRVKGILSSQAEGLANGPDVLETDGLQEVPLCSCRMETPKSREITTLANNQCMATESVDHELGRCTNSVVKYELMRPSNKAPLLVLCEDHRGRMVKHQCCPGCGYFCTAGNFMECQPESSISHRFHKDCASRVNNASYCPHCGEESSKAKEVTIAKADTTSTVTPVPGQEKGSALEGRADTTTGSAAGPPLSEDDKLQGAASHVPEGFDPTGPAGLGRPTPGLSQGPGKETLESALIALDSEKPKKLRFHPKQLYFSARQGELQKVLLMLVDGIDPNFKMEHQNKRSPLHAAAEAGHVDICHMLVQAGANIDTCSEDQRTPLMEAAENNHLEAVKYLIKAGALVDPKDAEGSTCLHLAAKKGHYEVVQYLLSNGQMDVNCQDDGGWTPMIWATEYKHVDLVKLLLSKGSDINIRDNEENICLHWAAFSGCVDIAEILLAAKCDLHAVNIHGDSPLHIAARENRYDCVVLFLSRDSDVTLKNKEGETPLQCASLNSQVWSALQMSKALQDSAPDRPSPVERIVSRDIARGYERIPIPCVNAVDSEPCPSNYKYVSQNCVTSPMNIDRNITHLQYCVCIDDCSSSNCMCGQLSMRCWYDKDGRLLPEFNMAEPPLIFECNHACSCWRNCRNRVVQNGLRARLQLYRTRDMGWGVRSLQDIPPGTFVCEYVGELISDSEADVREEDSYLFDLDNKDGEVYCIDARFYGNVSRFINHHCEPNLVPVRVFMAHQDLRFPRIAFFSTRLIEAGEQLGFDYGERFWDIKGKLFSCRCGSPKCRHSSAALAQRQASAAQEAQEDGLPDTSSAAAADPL

B1: TCOF1 (protein, UniProt Q13428 1-1488, looked up)
Treacle protein: MAEARKRRELLPLIYHHLLRAGYVRAAREVKEQSGQKCFLAQPVTLLDIYTHWQQTSELGRKRKAEEDAALQAKKTRVSDPISTSESSEEEEEAEAETAKATPRLASTNSSVLGADLPSSMKEKAKAETEKAGKTGNSMPHPATGKTVANLLSGKSPRKSAEPSANTTLVSETEEEGSVPAFGAAAKPGMVSAGQADSSSEDTSSSSDETDVEGKPSVKPAQVKASSVSTKESPARKAAPAPGKVGDVTPQVKGGALPPAKRAKKPEEESESSEEGSESEEEAPAGTRSQVKASEKILQVRAASAPAKGTPGKGATPAPPGKAGAVASQTKAGKPEEDSESSSEESSDSEEETPAAKALLQAKASGKTSQVGAASAPAKESPRKGAAPAPPGKTGPAVAKAQAGKREEDSQSSSEESDSEEEAPAQAKPSGKAPQVRAASAPAKESPRKGAAPAPPRKTGPAAAQVQVGKQEEDSRSSSEESDSDREALAAMNAAQVKPLGKSPQVKPASTMGMGPLGKGAGPVPPGKVGPATPSAQVGKWEEDSESSSEESSDSSDGEVPTAVAPAQEKSLGNILQAKPTSSPAKGPPQKAGPVAVQVKAEKPMDNSESSEESSDSADSEEAPAAMTAAQAKPALKIPQTKACPKKTNTTASAKVAPVRVGTQAPRKAGTATSPAGSSPAVAGGTQRPAEDSSSSEESDSEEEKTGLAVTVGQAKSVGKGLQVKAASVPVKGSLGQGTAPVLPGKTGPTVTQVKAEKQEDSESSEEESDSEEAAASPAQVKTSVKKTQAKANPAAARAPSAKGTISAPGKVVTAAAQAKQRSPSKVKPPVRNPQNSTVLARGPASVPSVGKAVATAAQAQTGPEEDSGSSEEESDSEEEAETLAQVKPSGKTHQIRAALAPAKESPRKGAAPTPPGKTGPSAAQAGKQDDSGSSSEESDSDGEAPAAVTSAQVIKPPLIFVDPNRSPAGPAATPAQAQAASTPRKARASESTARSSSSESEDEDVIPATQCLTPGIRTNVVTMPTAHPRIAPKASMAGASSSKESSRISDGKKQEGPATQVSKKNPASLPLTQAALKVLAQKASEAQPPVARTQPSSGVDSAVGTLPATSPQSTSVQAKGTNKLRKPKLPEVQQATKAPESSDDSEDSSDSSSGSEEDGEGPQGAKSAHTLGPTPSRTETLVEETAAESSEDDVVAPSQSLLSGYMTPGLTPANSQASKATPKLDSSPSVSSTLAAKDDPDGKQEAKPQQAAGMLSPKTGGKEAASGTTPQKSRKPKKGAGNPQASTLALQSNITQCLLGQPWPLNEAQVQASVVKVLTELLEQERKKVVDTTKESSRKGWESRKRKLSGDQPAARTPRSKKKKKLGAGEGGEASVSPEKTSTTSKGKAKRDKASGDVKEKKGKGSLGSQGAKDEPEEELQKGMGTVEGGDQSNPKSKKEKKKSDKRKKDKEKKEKKKKAKKASTKDSESPSQKKKKKKKKTAEQTV
B2: ALKBH5 (protein, UniProt Q6P6C2 2-394, looked up)
RNA demethylase ALKBH5: AAASGYTDLREKLKSMTSRDNYKAGSREAAAAAAAAVAAAAAAAAAAEPYPVSGAKRKYQEDSDPERSDYEEQQLQKEEEARKVKSGIRQMRLFSQDECAKIEARIDEVVSRAEKGLYNEHTVDRAPLRNKYFFGEGYTYGAQLQKRGPGQERLYPPGDVDEIPEWVHQLVIQKLVEHRVIPEGFVNSAVINDYQPGGCIVSHVDPIHIFERPIVSVSFFSDSALCFGCKFQFKPIRVSEPVLSLPVRRGSVTVLSGYAADEITHCIRPQDIKERRAVIILRKTRLDAPRLETKSLSSSVLPPSYASDRLSGNNRDPALKPKRSHRKADPDAAHRPRILEMDKEENRRSVLLPTHRRRGSFSSENYWRKSYESSEDCSEAAGSPARKVKMRRH
B3: TCERG1 (protein, UniProt O14776 1-1098, looked up)
Transcription elongation …: MAERGGDGGESERFNPGELRMAQQQALRFRGPAPPPNAVMRGPPPLMRPPPPFGMMRGPPPPPRPPFGRPPFDPNMPPMPPPGGIPPPMGPPHLQRPPFMPPPMSSMPPPPGMMFPPGMPPVTAPGTPALPPTEEIWVENKTPDGKVYYYNARTRESAWTKPDGVKVIQQSELTPMLAAQAQVQAQAQAQAQAQAQAQAQAQAQAQAQAQAQAQAQAQAQAQAQAQAQAQAQAQAQAQAQAQVQAQVQAQVQAQAVGASTPTTSSPAPAVSTSTSSSTPSSTTSTTTTATSVAQTVSTPTTQDQTPSSAVSVATPTVSVSTPAPTATPVQTVPQPHPQTLPPAVPHSVPQPTTAIPAFPPVMVPPFRVPLPGMPIPLPGVAMMQIVSCPYVKTVATTKTGVLPGMAPPIVPMIHPQVAIAASPATLAGATAVSEWTEYKTADGKTYYYNNRTLESTWEKPQELKEKEKLEEKIKEPIKEPSEEPLPMETEEEDPKEEPIKEIKEEPKEEEMTEEEKAAQKAKPVATAPIPGTPWCVVWTGDERVFFYNPTTRLSMWDRPDDLIGRADVDKIIQEPPHKKGMEELKKLRHPTPTMLSIQKWQFSMSAIKEEQELMEEINEDEPVKAKKRKRDDNKDIDSEKEAAMEAEIKAARERAIVPLEARMKQFKDMLLERGVSAFSTWEKELHKIVFDPRYLLLNPKERKQVFDQYVKTRAEEERREKKNKIMQAKEDFKKMMEEAKFNPRATFSEFAAKHAKDSRFKAIEKMKDREALFNEFVAAARKKEKEDSKTRGEKIKSDFFELLSNHHLDSQSRWSKVKDKVESDPRYKAVDSSSMREDLFKQYIEKIAKNLDSEKEKELERQARIEASLREREREVQKARSEQTKEIDREREQHKREEAIQNFKALLSDMVRSSDVSWSDTRRTLRKDHRWESGSLLEREEKEKLFNEHIEALTKKKREHFRQLLDETSAITLTSTWKEVKKIIKEDPRCIKFSSSDRKKQREFEEYIRDKYITAKADFRTLLKETKFITYRSKKLIQESDQHLKDVEKILQNDKRYLVLDCVPEERRKLIVAYVDDLDRRGPPPPPTASEPTRRSTK

System: 3×MBT domain of L3MBTL1
Assay: Triple SILAC pull-down, 3xMBT/3xMBTD355N ratio (cytoplasmic, nuclear and chromatin fractions of 293T cells);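 note: proteins quantified with MaxQuant, requiring at least two unique peptides and quantification in both label directions, normalized to the mean of proteins from a digested loading control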
Assay type: binding, human
Conditions: SILAC ratio, pull-down 3xMBT vs 3xMBTD355N; experiment with UNC0638 in heavy SILAC media

| Molecule | 3xMBT/D355N UNC Heavy [log base 2] |
| --- | --- |
| B1 | 0.67 |
| B2 | 1.96 |
| B3 | 2.34 |

Same assay, conditions: SILAC ratio, pull-down 3xMBT vs 3xMBTD355N; experiment with UNC0638 in light SILAC media

| Molecule | 3xMBT/D355N UNC Light [log base 2] |
| --- | --- |
| B1 | 3.27 |
| B2 | 1.73 |
| B3 | 3.64 |

Molecular target: T1, G9a and GLP
Assay: Triple SILAC pull-down after UNC0638 treatment of 293T cells, DMSO/UNC0638 ratio of protein captured by 3×MBT;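 note: mass spectrometry (Q-Exactive) SILAC quantitation, DMSO/UNC0638 ratio computed after subtracting 3×MBTD355N mutant pull-down background, only proteins with at least twofold 3×MBT over mutant signal considered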
Assay type: cell-based
Set-up: cells were treated for 24 hours with UNC0638 at 2.5 μM or DMSO vehicle control; endogenous in cells; host or cells: HEK 293T
Conditions: SILAC ratio DMSO/UNC0638 of protein pulled down with 3xMBT; UNC0638 in heavy SILAC media

| Relative to UNC0638 UNC Heavy [log base 2] | Molecule |
| --- | --- |
| −0.10 | B1 |
| 0.29 | B2 |
| −0.10 | B3 |

Same assay, conditions: SILAC ratio DMSO/UNC0638 of protein pulled down with 3xMBT; UNC0638 in light SILAC media

| Relative to UNC0638 UNC Light [log base 2] | Molecule |
| --- | --- |
| 0.38 | B1 |
| −0.01 | B2 |
| 0.37 | B3 |

Same assay, conditions: average of UNC Light and UNC Heavy experiments

| Relative to UNC0638 Average [log base 2] | Molecule |
| --- | --- |
| 0.14 | B1 |
| 0.14 | B2 |
| 0.13 | B3 |

From patent US20140274782A1, “AFFINITY REAGENTS AND METHODS FOR DETECTION, PURIFICATION, AND PROTEOMIC ANALYSIS OF METHYLATED PROTEINS” (The Board of Trustees of the Leland Stanford Junior …, priority 2013, published 2014)
